Substitutions are numbered along the chain they refer to. In names and notes the source's numbering stands.

Substrate in the data set: O=P(O)(O)CCO
As to the kind of experiment: purified protein. The conditions noted are these: O2 co-substrate.

[1] abbreviates: enzyme saturated with Fe(II) (more than 1 equivalent).

B1: 2-hydroxyethylphosphonate dioxygenase (HEPD) (Streptomyces viridochromogenes DSM 40736) (protein)
chain: MRIDPFKLAHWMNARKYTAAQTADLAGLPLDDLRRLLGDEANEPDPAAATALAEALSVEPSQLAADAHRNLTVVHKSAEEMHASRRPIQRDGIHFYNYYTLAAPEGRVAPVVLDILCPSDRLPALNNGHLEPAITVNLGPGDINGRWGEEITPQTWRVLHANHGGDRWITGDSYVEPSYCPHSYSLAGDAPARIVSYTAQSNISPLMTEANNWSTGAFEEALKALSGKVSAGSVLDLFLARRAHTRTSAAEAAGVPPADLEAALRSPASETGLTVLRTLGRALGFDYRVLLPADDQHDGVGKTWTTIEDSRRSRRTFGTYEAASMASAAHLPDLVGSFLRVDADGRGADLIDHAENHYVVTEGRLTLEWDGPDGPASVELEPDGSAWTGPFVRHRWHGTGTVLKFGSGAHLGYQDWLELTNTFEPAATLRRGRRDLAGWGYDN
Usually Km stands for the concentration of substrate that gives half-maximal velocity. As usually defined, the kcat is the maximal rate divided by the concentration of active sites. For B1, where the note is “Fe(II)”, the Km was 8 ± 1 µM and the turnover number (kcat) was found to be 0.3 ± 0.01 s⁻¹. Moreover, under “Fe(II), labelled compound”, the Michaelis-Menten constant (Km) came out at 10 ± 2 µM and the turnover number (kcat) was determined as 0.31 ± 0.01 s⁻¹.

B2: 2-hydroxyethylphosphonate dioxygenase (HEPD) (Streptomyces viridochromogenes DSM 40736; E176H) (protein)
chain: B1 chain with E176H
Consider B2, for which, under setting [1], the Km is 23 ± 3 µM and the kcat was determined as 0.38 ± 0.01 s⁻¹.

The record behind these values is PMC4487810.
